Literature values as cited in PMC3950513.

Molecular target: MukB (Escherichia coli) (UniProt P22523)
Chain of UniProt P22523 (P22523 whole entry): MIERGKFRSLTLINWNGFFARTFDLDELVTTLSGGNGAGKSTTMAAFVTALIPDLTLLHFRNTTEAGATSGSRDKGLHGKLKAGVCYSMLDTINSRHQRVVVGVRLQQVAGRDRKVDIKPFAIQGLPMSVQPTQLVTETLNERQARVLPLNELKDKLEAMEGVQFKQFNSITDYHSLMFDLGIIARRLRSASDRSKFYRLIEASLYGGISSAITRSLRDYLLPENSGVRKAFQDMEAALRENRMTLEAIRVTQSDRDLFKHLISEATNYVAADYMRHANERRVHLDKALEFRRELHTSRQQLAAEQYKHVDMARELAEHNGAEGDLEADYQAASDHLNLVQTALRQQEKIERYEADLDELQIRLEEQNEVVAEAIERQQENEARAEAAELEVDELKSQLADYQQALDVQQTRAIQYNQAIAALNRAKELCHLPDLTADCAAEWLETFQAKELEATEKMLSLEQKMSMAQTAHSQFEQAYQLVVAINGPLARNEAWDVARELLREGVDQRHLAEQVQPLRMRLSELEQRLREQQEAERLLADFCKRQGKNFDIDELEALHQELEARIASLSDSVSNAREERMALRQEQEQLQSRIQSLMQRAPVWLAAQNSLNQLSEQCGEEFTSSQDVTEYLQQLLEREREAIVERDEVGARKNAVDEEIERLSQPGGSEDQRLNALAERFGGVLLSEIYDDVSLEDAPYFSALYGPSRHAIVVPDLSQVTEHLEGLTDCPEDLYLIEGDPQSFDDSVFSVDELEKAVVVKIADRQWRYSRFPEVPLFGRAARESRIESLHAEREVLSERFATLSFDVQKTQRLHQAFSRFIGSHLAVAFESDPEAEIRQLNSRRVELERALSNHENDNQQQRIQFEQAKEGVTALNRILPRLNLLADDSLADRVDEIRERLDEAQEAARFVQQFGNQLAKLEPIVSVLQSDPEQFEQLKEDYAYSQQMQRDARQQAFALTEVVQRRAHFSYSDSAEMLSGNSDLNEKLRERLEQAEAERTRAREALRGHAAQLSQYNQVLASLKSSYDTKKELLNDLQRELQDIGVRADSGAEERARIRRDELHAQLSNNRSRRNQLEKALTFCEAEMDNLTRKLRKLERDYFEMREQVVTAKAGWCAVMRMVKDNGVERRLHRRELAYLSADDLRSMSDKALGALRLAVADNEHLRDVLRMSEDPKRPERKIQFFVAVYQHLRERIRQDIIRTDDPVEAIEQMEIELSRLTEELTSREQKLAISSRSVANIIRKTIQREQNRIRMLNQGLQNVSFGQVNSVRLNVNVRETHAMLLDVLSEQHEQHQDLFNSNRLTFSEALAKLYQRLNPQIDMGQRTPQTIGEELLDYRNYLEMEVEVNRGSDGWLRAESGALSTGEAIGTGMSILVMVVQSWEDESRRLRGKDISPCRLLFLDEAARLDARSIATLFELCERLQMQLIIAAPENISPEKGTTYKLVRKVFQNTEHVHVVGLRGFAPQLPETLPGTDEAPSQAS

**Q.** With ParC (from UniProt P0AFI2) as the substance, how does the Kd read?
**A.** Its Kd is 500 nM.
